Laboratory results from the RNAGym collection of RNA variant scans (doi:10.1073/pnas.2313332121).
Fewer inactive variants are shown than the library holds.

B1: TPR 5TU (parent)
chain: GGAUCUUCUCGAUCUAACAAAAAAGACAAAUCUGCCACAAAGCUUGAGAGCAUCUUCGGAUGCAGAGGCGGCAGCCUUCGGUGGCGCGAUAGCGCCAACGUUCUCAACUAUGACACGCAAAACGCGUGCUCCGUUGAAUGGAGUUUAUCAUG

Variants of: B1
Assay: polymerase ribozyme fitness, log enrichment relative to wild type (log ratio); higher = more active; in vitro selection for triplet polymerase activity
Summary of the method: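 Mutant libraries for each subunit of a heterodimeric triplet polymerase ribozyme were made by PCR and then transcribed. Each library underwent one round of in vitro selection in triplicate: annealing with a biotinylated primer, the partner subunit and triplets, frozen incubation at −7 °C, gel excision of extended constructs, streptavidin-bead capture and RT-PCR. Input and output libraries were Illumina-sequenced, and only genotypes with ≥10 input reads and ≥1 read per output were kept. Fitness is the logarithm, base 2, of genotype enrichment over wild-type enrichment, computed from inverse-variance-weighted replicate averages.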
For GGAUCUUCUCGAUCUAACAAAAAAGACAAAUCUGCCACAAAGCUUGAGGGUAUCUUCGGAUGCAGAGGCGGCAGCCUUCGGUGGCGCGAUAGCGGCAACGUUCUCAACUAUGACACGCAAAACGCGUGCUCCGUUGGAUGGAGAUUAUCAUG [A49G C51U C95G A137G U144A], the “polymerase ribozyme fitness (log ratio)” value was no more than -4.2. In the case of GGAUCUUCUCGAUCUAACAAAAAAGACAAAUCUGCCACAAAGCUUGAGGACAUCAUCGGAUGCAGAGGCGGCAGCCUUCGGUGGCGCGAUAGCGCCAACGUUCUCAACUAUGACACGCAAAACGCGUGCUCCGUUGAAUGGAGUUCAUCAUG [A49G G50A U55A U146C], the “polymerase ribozyme fitness (log ratio)” value is reported as -1.98. With GGAUCUUCUCGAUCUAACAAAAAAGACAAAUCUGCCACAAAGCUUGAGGGCAUCUUCGGAUGCAGAGGCGACAGCCUUCGGUGGCGCGAUAGGGCCAACGUUCUCAACUAUGACACGCAAAACGCGUGCUCCGUUGAAUGGAGUUUAUCAUG [A49G G71A C93G] the “polymerase ribozyme fitness (log ratio)” value was no more than -4.2. For GGAUCUUCUCGAUCUAACAAAAAAGACAAAUCUGCCACAAAGCUUGAGGGCAUCUUCGGAUGCAGAGGCGGCAGCCUUCGGUGGCGCGAUAGCGCCAACGUUCUCGACUAUGACACGCAAAACGCGUGCUCCGUUGAAUGGAGUUUAUCAUG [A49G A106G], the “polymerase ribozyme fitness (log ratio)” value was -1.08. For GGAUCUUCUCGAUCUAACAAAAAAGACAAAUCUGCCACAAAGCUUGAGGGGAUCUUCGGAUGCAGAGGCGGCAGCCUUCGGUGGCGCGAUAGCGCCAACGUUCUCAACUAUGACACGCAAAACGCGUGCUCCGUUGAAUGGAGUUUAUCAUG [A49G C51G], the “polymerase ribozyme fitness (log ratio)” value was -2.66. In the case of GGAUCUUCUCGAUCUAACAAAAAAGACAAAUCUGCCACAAAGCUUGAGGGCAUCUUCGGAUGCAGAGGCGGCAGCCUUCGGUGGCGAGCAAGCGCCAACGUUCUCAACUAUGACACGCAAAACGCGUGUUCCGUUGAAUGGAGUUUAUCAUG [A49G C87A A89C U90A C129U], the “polymerase ribozyme fitness (log ratio)” value is reported as no more than -4.2. With GGAUCUUCUCGAUCUAACAAAAAAGACAAAUCUGCCACAAAGCUUGAGGGCAUCUUCGGAUUUAGAGGCGGCAGCCUUCGGUGGCGCGAUAGCGCAAACGUUCUCAACUAUGACACGCAAAUCGCGUGCUCCGUUGAAUGGAGUUUAUCAUG [A49G G62U C63U C96A A122U] the “polymerase ribozyme fitness (log ratio)” value was -3.19. With GGAUCUUCUCGAUCUAACAAAAAAGACAAAUCUGCCACAAAGCUUGAGGGCAUCUUCGGAUGCAGAGGCGGCAGCCUUCGGUGGCGCGAUAGCGCCAACGUUCUCAACUAUGAUACGCAAAACGCGUGCUCCGUUGAAUGGAGAUUAUCAUG [A49G C114U U144A] the “polymerase ribozyme fitness (log ratio)” value was -4.06. With GGAUCUUCUCGAUCUAACAAAAAAGACAAAUCUGCCACAAAGCUUGAGGGCAUCUUCGCAUGCAGAAGCAGCAGCCCUCGGCGGCGCGGUAGCGGCAACGUUCUCAACUAUGACACGCAAAACGCGUGCUCCGUUGAAUGGAGUUUAUCAUG [A49G G59C G67A G70A U77C U82C A89G C95G] the “polymerase ribozyme fitness (log ratio)” value was no more than -4.2. For GGAUCUUCUCGAUCUAACAAAAAAGACAAAUCUGCCACAAAGCUUGAGGGCAUCUUCGGAUGCAGAGGCGGCAGCCUUCGGUAGCGCGAUAGCGCCAACGUUCUCAACUAUGACACGCAAAACGCGUGCUCCGUUGAAUGGAGGUUUUCAUG [A49G G83A U144G A147U], the “polymerase ribozyme fitness (log ratio)” value was -1.87. In the case of GGAUCUUCUCGAUCUAACAAAAAAGACAAAUCUGCCACAAAGCUUGAGGGCAUCUUCGGAUGCAGAGGCGGCAGCCUUCGGUGGCGCGAUAGCGCCAACGUUCUCAACUAUGACACGCAAAACGGGUGCUCCGUUGAAUGGAGUUUAUCAUG [A49G C125G], the “polymerase ribozyme fitness (log ratio)” value is reported as -0.947. With GGAUCUUCUCGAUCUAACAAAAAAGACAAAUCUGCCACAAAGCUUGAGGGCAUCUUCGGAUGCAGAGGCGGCAGCCUUCGGUGGCGCGAUAGCGUCAACGUUCUCAACUAUGACACGCAAAACGCGUGCUCCGUUGAAUGGAGUUUAUCAUG [A49G C95U] the “polymerase ribozyme fitness (log ratio)” value was -0.995. For GGAUCUUCUCGAUCUAACAAAAAAGACAAAUCUGCCACAAAGCUUGAGGACAUCUUCGGAUGCAGAGGCGGCAGCCUUCGGUGGCGCGAUAGCGCCAACGUUCUCAACUAUGACACGCAAAACGCGUGCUCCGUUGAAUUGAGUUUAUCAUG [A49G G50A G140U], the “polymerase ribozyme fitness (log ratio)” value was -3.96. With GGAUCUUCUCGAUCUAACAAAAAAGACAAAUCUGCCACAAAGCUUGAGGCCAUCUUCGGAUGCAGAGGCGGCAGCCUUCGGUGGCGCGAUAGCGUCAGCGUUCUCAACUAUGACACGCAAAACGCGUGCUCCGUUGAAUGGAGUGUAUCAUG [A49G G50C C95U A98G U145G] the “polymerase ribozyme fitness (log ratio)” value was -2.77. With GGAUCUUCUCGAUCUAACAAAAAAGACAAAUCUGCCACAAAGCUUGAGGGCAUCUUCGGAUGUAGAGGCGGCAGCCUUCGCUGGCGCGAUAGCGCCAACGUUCGCAACUAUGACACGCAAAACGCGUGCUCCGUUGAAUGGAGUUUAUCAUG [A49G C63U G81C U104G] the “polymerase ribozyme fitness (log ratio)” value was -2.29. With GGAUCUUCUCGAUCUAACAAAAAAGACAAAUCUGCCACAAAGCUUGAGGGCAUCUUCGGAUGCAGAGGCGGCACCCUUCGGUGGCGCGAUAGCGCCAACGGUCUCAACUAUCACACGCAAAUCGCGAGCUCCGUUGACUGGAGUUUAUCAUG [A49G G74C U101G G112C A122U U127A A138C] the “polymerase ribozyme fitness (log ratio)” value was no more than -4.2. For GGAUCUUCUCGAUCUAACAAAAAAGACAAAUCUGCCACAAAGCUUGAGGGCAUCUUCGGAUGCAGAGGCGGCAGCUUUCGGUGGCGCGCUAGCGCAAACGUUCUCAACUAUGACACGCAAAACGCGUGCUCCGUUGAAUGGAGUUUAUCAUG [A49G C76U A89C C96A], the “polymerase ribozyme fitness (log ratio)” value was -2.23. For GGAUCUUCUCGAUCUAACAAAAAAGACAAAUCUGCCACAAAGCUUGAGGGCAUCUUCGGAUGCAGAGGCGGCAGCCUUCGCUGGCGCGAUGGCGCCAUCGUUCUCAACUAUGACACGCAAAACGCGUGCUCCGUUGAAUGGAGUUUAUCAUG [A49G G81C A91G A98U], the “polymerase ribozyme fitness (log ratio)” value was -2.95. In the case of GGAUCUUCUCGAUCUAACAAAAAAGACAAAUCUGCCACAAAGCUUGAGGACAUCUUCGGAUGCAGAGGCGGCAGCCUUCGGUGGCGCGAUAGCGUCAACGUUCUCAACUAUGACACGCAAAACGCGUGCUCCGUUGAAUGGAGUCUAUCAUG [A49G G50A C95U U145C], the “polymerase ribozyme fitness (log ratio)” value is reported as -2.54.
